Measured values: patent US20240279345A1, “ALPHA 5 BETA 1 INTEGRIN BINDING AGENTS AND USES THEREOF” (PASITHEA THERAPEUTICS CORP., priority 2021, published 2024)
Residue numbers refer to the chain shown, from its start.

B1: A2-5D10 (antibody, V domains shown)
VH: QVQLKESGPGLVAPSQSLSITCTISGFSLTSYGVHWVRQPPGKGLEWLVVIWSDGSTTYNSTLKSRLSISKDNSKSQVFLKMNSLQTDDTAMYYCARHYDYDGDWFAYWGQGTLVTVSA
VL: QILLTQSPAIMSASLGERVTMTCTASSSVSSRCLHWYQQKPGSSPKLWIYSTSNLASGVPARFRGSGSGTSYSLTISSMEAEDAATYYCHQYYRSPPTFGGGTKLEIK
notes: mouse hybridoma antibody
B2: A2-7A05 (antibody, V domains shown)
VH: QVQLQQPGAELVKPGASVKLSCKASGYTFTIYWINWVKQRPGQGLEWIGKIYPGSISTDYNEKFKSKATLTVDTSSSTAYMQLSSLTSDDSAVYYCAITGTGGLAYWGQGTLVTVSA
VL: ENVLTQSPAIMSASLGEKVTMTCRASSSVNYMYWYQQKSDASPKLWIYFTSSLAPGVPGRFSGSGSGNSYSLTISTMEGEDAATYYCQQFTTSPFTFGSGTKLEIK
notes: mouse hybridoma antibody; also called A2-7A05 (hybridoma)
B3: A2-7F01 (antibody, V domains shown)
VH: B2 VH with K50N, I56S, D59N, S66T, L104F
VL: B2 VL with T22S, G59T, Y70F, T76S, F90L, T92G, K102R
notes: mouse hybridoma antibody

Tests used:
U87MG cells = test: Cellular detachment of U87MG cells from FN coated plates; format: cell-based; settings: antibodies 2.0-0.016 μg/mL, cRGD 20-0.16 μM; 1 hour and 3 hours
Procedure: The A-15B08 and A2-7A05 antibodies and cRGD were also tested for their ability to induce dissociation of cellular α5β1 integrin from FN. U87MG cells (HTB-14™, ATCC, Manassas, VA) which were originally derived from a Glioblastoma tumor, are known to express α5β1 integrin, and adhere to FN coated plates. After an overnight incubation on FN coated plates, the U87MG cells formed a loosely packed monolayer and have extended spindle shapes. If the cells are induced to detach from the plates, by trypsin for example, the attachment points are released, and the cells become round. This type of change in morphology was used to assess whether the antibodies and the small molecule inhibitor cRGD can induce U87MG cells to dissociate from FN coated plates.
The following method was used to assess cellular detachment activity: A 96-well cell culture plate (Thermo Fisher Scientific, Waltham, MA, cat. no. 165306) was coated with FN (Human Fibronectin, R&D Systems, Minneapolis, MN 55413, cat. no. 1918-FN) by incubation of 50 uL per well 32 μg/mL FN in 1×PBS for 1 hour at 37° C., then washed 2× with EMEM media (ATCC, Manassas, VA, cat. no. 30-2003) supplemented with 10% Fetal Bovine Serum (FBS; ATCC, Manassas, VA, cat. no. 30-2021). U87MG cells were plated at 20,000 cells per well in EMEM media+10% FBS overnight to allow for maximum adherence. The next day the media was replaced with fresh media that included a 1:5 dilution series of antibodies A-15B08, A2-7A05 or isotype control IgG4 at concentrations of 2.0, 0.4, 0.08 and 0.016 μg/mL or cRGD at 20, 4, 0.8 and 0.16 μM. All tests were run in duplicate. Cell morphology was assessed, and images were captured using a 10× objective of an ECHO Rebel light microscope (ECHO, San Diego, CA).

[1] = molecular target: rh-α5β1 protein bound to human FN protein (Homo sapiens, UniProt P05556+P08648); test: SPR dissociation of rh-α5β1 bound to FN; format: biochemical; settings: 1 μM antibody injected for 250s after 400 nM rh-α5β1; 25° C.
Procedure: Surface Plasmon Resonance (SPR) and a cell-based assay were used to test the effect of the antibodies on the dissociation of rh-α5β1 protein bound to human FN protein. The antibodies tested are representatives of the two groups of antibodies identified in Example 6 that define two different epitope binding groups and have distinct ligand blocking properties. […] In addition, the small molecule antagonist cyclic RGD (cRGD; Creative-Peptides, Shirley, New York, 11967, cat. no. CP22175) was tested as a comparator that inhibits α5β1 integrin binding to FN by competing at the ligand binding pocket.
Description of the SPR method used: FN protein dissolved in water was manually printed onto the bare gold-coated (thickness 47 nm) PlexArray Nanocapture Sensor Chip (Plexera Bioscience, Seattle, WA) at 40% humidity. The chip was incubated in 80% humidity at 4° C. for overnight and rinsed with 10×PBST (0.1M phosphate buffer, 1.54M NaCl, pH7.4, 0.5% Tween20) for 10 minutes (min), 1×PBST (0.01M phosphate buffer pH7.4, 0.154M NaCl, 0.05% Tween20) for 10 min, and deionized water twice for 10 min. The chip was then blocked with 5% (w/v) non-fat milk in water overnight, and washed with 10×PBST for 10 min, 1×PBST for 10 min, and deionized water twice for 10 min before being dried under a stream of nitrogen prior to use. SPR measurements were performed using PlexArray HT (Plexera Bioscience, Seattle, WA), a high-throughput surface plasmon resonance imaging (SPRi) platform. Collimated light (660 nm) passes through the coupling prism, reflects off the SPR-active gold surface, and is received by the CCD camera. Buffers and samples were injected by a non-pulsatile piston pump into the 30 μL flow cell that was mounted on the coupling prim. […] SPR binding responses (a.u.) were recorded and plotted over time.

[2] = molecular target: T1, recombinant mouse α5β1 (rm-α5β1; R&D Systems, cat. no. 7728-A5) (mouse, UniProt P11688 45-999; P09055 21-728); test: ELISA, coated rm-α5β1, supernatant 1:10
T1 construct: bought recombinant heterodimer
T1 sequence (P11688 45-999 limits assumed, form in doubt, chain 1 of 2): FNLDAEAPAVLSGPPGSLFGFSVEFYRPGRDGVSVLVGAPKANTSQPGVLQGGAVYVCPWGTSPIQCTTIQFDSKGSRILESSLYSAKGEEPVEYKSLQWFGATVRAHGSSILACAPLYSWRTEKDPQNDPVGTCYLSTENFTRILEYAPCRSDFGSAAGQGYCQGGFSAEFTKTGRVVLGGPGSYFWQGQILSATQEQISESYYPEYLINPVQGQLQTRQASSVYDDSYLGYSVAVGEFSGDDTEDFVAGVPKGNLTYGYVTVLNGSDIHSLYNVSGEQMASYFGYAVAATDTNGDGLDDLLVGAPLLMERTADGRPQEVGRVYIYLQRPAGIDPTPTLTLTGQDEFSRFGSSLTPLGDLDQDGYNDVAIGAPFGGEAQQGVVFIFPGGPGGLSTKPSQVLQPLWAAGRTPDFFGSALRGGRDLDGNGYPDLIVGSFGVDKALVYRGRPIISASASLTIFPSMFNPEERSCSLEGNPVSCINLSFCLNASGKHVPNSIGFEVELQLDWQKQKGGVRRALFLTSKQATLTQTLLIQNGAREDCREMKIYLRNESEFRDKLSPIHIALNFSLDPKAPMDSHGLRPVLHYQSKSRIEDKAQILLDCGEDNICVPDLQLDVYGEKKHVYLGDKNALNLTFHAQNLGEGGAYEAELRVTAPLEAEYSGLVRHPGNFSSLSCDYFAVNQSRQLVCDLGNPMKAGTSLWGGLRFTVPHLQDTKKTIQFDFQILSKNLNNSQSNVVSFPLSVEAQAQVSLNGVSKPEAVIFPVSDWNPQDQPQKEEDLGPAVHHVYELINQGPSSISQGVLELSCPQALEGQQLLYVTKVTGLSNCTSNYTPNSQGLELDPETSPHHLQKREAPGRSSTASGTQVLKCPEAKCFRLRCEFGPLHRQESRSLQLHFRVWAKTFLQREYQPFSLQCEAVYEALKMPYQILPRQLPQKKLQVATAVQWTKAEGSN
T1 sequence (P09055 21-728 limits assumed, form in doubt, chain 2 of 2): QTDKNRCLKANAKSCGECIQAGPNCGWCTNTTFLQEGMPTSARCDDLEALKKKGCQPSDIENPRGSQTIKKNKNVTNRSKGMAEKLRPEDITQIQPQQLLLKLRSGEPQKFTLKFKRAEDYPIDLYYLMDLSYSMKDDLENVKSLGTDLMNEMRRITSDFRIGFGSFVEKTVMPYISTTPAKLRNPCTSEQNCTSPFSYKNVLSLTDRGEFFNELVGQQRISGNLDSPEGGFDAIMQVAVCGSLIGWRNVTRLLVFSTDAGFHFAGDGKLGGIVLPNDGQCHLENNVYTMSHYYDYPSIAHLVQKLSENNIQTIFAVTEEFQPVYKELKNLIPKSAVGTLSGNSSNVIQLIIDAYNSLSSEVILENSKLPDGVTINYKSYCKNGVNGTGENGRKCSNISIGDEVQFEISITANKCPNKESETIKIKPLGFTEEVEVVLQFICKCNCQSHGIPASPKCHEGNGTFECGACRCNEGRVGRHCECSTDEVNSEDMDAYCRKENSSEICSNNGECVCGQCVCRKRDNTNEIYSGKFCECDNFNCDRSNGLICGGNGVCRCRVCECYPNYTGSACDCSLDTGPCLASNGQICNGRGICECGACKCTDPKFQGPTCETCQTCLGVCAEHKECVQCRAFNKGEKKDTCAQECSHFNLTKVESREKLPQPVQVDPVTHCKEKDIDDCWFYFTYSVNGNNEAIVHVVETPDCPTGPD
Procedure: (§1) Plates were washed 3 times with Wash Buffer (1× Tris Buffered Saline containing 0.05% Tween20), blocked with 2% BSA in 1×TBS (made from 10× Thermo Scientific Blocker BSA (10×) in TBS; Thermo Fisher Scientific, Waltham, MA, cat. no. 37520) for 2 hours at room temperature (RT) then incubated with hybridoma supernatants diluted 1:10 with Standard Diluent (2% BSA, 1×TBS, 0.05% Tween20). […] Absorbance 450 nm was measured.

[3] = molecular target: T2, recombinant human α5β1 integrin (rh-α5β1; R&D Systems, cat. no. 3230-A5) (human, UniProt P08648 42-995; P05556 21-728); test: ELISA, coated rh-α5β1, supernatant 1:10
T2 construct: bought recombinant heterodimer
T2 sequence (P08648 42-995 limits assumed, form in doubt, chain 1 of 2): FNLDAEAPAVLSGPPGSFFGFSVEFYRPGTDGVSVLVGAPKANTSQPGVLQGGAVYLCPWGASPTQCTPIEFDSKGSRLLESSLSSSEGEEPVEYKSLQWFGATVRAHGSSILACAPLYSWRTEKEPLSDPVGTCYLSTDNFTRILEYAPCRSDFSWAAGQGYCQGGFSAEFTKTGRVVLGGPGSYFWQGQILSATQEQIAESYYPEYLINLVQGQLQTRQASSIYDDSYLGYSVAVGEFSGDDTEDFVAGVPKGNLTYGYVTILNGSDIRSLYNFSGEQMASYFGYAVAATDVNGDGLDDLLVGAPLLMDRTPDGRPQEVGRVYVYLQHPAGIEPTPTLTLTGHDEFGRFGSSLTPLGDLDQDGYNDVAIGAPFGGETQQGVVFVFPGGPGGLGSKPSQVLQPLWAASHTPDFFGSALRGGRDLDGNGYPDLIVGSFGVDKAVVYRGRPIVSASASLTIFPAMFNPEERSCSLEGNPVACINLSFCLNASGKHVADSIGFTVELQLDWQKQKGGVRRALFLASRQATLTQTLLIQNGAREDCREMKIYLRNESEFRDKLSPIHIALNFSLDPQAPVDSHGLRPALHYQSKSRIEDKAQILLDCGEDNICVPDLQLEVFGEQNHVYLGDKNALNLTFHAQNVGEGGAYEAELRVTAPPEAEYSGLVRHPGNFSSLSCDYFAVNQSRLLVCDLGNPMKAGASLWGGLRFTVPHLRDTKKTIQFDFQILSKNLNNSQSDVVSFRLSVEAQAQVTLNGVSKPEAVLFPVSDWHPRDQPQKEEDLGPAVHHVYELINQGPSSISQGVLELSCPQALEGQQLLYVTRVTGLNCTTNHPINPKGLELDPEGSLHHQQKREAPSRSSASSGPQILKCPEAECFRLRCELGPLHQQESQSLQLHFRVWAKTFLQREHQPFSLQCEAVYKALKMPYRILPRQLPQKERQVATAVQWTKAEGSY
T2 sequence (P05556 21-728 limits assumed, form in doubt, chain 2 of 2): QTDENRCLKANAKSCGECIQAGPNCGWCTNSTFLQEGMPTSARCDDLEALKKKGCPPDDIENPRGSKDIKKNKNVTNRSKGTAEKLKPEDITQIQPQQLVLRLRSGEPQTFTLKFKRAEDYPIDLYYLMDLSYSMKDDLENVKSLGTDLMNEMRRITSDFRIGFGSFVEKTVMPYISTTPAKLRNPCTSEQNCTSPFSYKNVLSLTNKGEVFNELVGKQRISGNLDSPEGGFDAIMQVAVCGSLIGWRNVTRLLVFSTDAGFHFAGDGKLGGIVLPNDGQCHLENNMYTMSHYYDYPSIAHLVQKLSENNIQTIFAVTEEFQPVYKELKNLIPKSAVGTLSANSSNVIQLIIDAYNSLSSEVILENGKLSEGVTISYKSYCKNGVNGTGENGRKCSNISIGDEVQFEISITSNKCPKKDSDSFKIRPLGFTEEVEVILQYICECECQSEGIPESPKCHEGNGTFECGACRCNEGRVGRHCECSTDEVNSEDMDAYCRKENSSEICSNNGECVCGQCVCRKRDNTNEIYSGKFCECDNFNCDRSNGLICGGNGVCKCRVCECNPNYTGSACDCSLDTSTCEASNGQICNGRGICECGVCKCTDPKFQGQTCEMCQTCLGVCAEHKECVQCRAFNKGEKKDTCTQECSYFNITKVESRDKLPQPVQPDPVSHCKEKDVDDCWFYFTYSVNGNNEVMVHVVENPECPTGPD
Procedure: as §1

[4] = molecular target: T3, purified recombinant human α5β1 integrin heterodimer, 6×His tagged (rh-α5β1); Acro Biosystems, cat. no. … (human, UniProt P08648 42-995; P05556 21-728); test: ELISA, inhibition of rh-α5β1-His binding to coated FN, purified hybridoma mAb
T3 construct: bought recombinant heterodimer; also called rh-α5β1-6×His tagged protein; His-tagged-α5β1
T3 sequence (P08648 42-995 limits assumed, form in doubt, chain 1 of 2): as the sequence (P08648 42-995 limits assumed, form in doubt, chain 1 of 2) above
T3 sequence (P05556 21-728 limits assumed, form in doubt, chain 2 of 2): as the sequence (P05556 21-728 limits assumed, form in doubt, chain 2 of 2) above
Procedure: Immulon4 HBX ELISA 96-well plates were coated with FN by incubation overnight at 4° C. with 2.5 μg/mL human FN (R&D Systems, Minneapolis, MN 55413, cat. no. 1918-FN) in 1×PBS (0.01M phosphate buffer and 0.154M NaCl, pH 7.4). Plates were then washed 3 times with Wash Buffer (1× Tris Buffered Saline containing 0.05% Tween20), blocked with 2% BSA in 1×TBS for 2 hours at room temperature (RT). […] Isotype control antibody (Control Ab; Ms IgG2a EMD Millipore Corp, Billerica, MA, cat. no. PP102) was used to normalize data across different assay runs. […] Following 1 hour at RT, the wells were washed 3 times, incubated with biotinylated Anti-6×His-Tag Ab (Invitrogen, Carlsbad, CA, cat. no. MAI-21315-BTIN) at 1:1000 in Standard Diluent for 1 hour, washed 3 times, incubated for 30 minutes with poly-HRP Streptavidin (Thermo Fisher Scientific, Waltham, MA, cat. no. N200), washed 4 times, incubated with TMB substrate (Thermo Fisher Scientific, Waltham, MA, cat. no. N301) for 2-5 minutes, followed by addition of ELISA Stop Solution (Invitrogen, Carlsbad, CA, cat. no. SS04). Absorbance 450 nm was measured. Data points were normalized to the isotype Control Ab values at each concentration and reported as % Absorbance 450 nm normalized to Control Ab. Non-linear regression analysis was used to fit curves (4-parameter) to the data using GraphPad Prism version 9.0.2 (GraphPad Software, LLC, San Diego, CA).

[5] = molecular target: T4, recombinant human α4β1 integrin (rh-α4β1; R&D Systems, cat. no. 5668-A4) (human, UniProt P13612 34-977; P05556 21-728); test: ELISA, coated rh-α4β1, supernatant 1:10
T4 construct: bought recombinant heterodimer
T4 sequence (P13612 34-977 limits assumed, form in doubt, chain 1 of 2): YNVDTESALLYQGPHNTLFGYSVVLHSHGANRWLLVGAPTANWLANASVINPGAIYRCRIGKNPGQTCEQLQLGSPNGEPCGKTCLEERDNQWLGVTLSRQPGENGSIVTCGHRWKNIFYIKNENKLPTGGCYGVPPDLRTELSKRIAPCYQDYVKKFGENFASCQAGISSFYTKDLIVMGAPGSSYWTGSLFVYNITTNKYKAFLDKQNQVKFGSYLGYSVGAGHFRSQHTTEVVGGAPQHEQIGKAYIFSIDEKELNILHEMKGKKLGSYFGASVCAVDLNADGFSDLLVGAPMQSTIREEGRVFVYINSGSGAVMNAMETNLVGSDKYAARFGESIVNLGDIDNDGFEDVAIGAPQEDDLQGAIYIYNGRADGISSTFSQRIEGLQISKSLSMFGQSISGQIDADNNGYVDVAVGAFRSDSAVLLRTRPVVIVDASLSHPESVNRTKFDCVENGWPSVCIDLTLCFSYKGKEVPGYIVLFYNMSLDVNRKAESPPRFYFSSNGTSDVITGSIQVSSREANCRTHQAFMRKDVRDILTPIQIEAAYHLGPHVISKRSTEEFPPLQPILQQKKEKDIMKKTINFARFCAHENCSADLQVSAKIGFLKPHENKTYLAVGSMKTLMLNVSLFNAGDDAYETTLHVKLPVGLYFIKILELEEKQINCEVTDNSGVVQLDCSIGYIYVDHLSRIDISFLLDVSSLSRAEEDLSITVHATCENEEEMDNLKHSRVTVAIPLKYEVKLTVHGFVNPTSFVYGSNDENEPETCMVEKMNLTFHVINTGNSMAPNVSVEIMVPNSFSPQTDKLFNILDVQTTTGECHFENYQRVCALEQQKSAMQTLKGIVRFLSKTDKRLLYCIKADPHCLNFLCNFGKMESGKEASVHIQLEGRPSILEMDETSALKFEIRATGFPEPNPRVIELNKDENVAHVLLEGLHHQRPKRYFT
T4 sequence (P05556 21-728 limits assumed, form in doubt, chain 2 of 2): as the sequence (P05556 21-728 limits assumed, form in doubt, chain 2 of 2) above

[6] = molecular target: T3, purified recombinant human α5β1 …; test: BLI (Octet), supernatant mAb on anti-mouse IgG Fc sensor, 20 nM rh-α5β1
Description: Anti-Mouse IgG Fc biosensors were used to load each clone supernatant. Assay steps were as follows: Sensor Check (30s)-->Load Ab (700s)-->Quench (480s)-->Baseline(480s)-->Ab Assoc. (600s)-->Dissoc. (600s).

Molecule | cellular detachment (cell rounding) of U87MG cells from FN coated plates (U87MG cells) | effect on dissociation of rh-α5β1 protein bound to FN (SPR response) [1] | Absorbance 450 nm [2] | Absorbance 450 nm [3] | % Max Inhibition [4] | Absorbance 450 nm [5] | Kd [6] | koff [6] | kon [6]
cyclic RGD [cRGD, reference compound] | did not show significant cell detachment | did not have any discernable effect on the dissociation rate | – | – | – | – | – | – | –
B1 | – | – | 0.0647 | 2.31 | 93% | 0.0683 | 2.32 nM | 0.00161 s⁻¹ | 693000 M⁻¹ s⁻¹
B2 | – | – | 0.0682 | 2.05 | 41% | 0.0713 | 0.8 nM | 0.000178 s⁻¹ | 222000 M⁻¹ s⁻¹
B3 | – | – | 0.0563 | 2.03 | 60% | 0.0617 | 1.3 nM | 0.000314 s⁻¹ | 242000 M⁻¹ s⁻¹
